Here are results for five compounds from article PMC8307404, “Crystal Structure-Guided Design of Bisubstrate Inhibitors and Photoluminescent Probes for Protein Kinases of the PIM Family” (Molecules, 2021).

Square brackets hold non-standard residues; d marks the D form. Peptide text beside a SMILES is read from it. * marks the point of attachment. X3 = O=C(CCCCCNCc1nc2c(sc3cc(Br)cnc32)c(=O)[nH]1)*

Assay in all cases: Kinase profiling (radiometric filter-binding)
What all share (assay type): biochemical

For one data set, the target named is T1, TTK (Homo sapiens, UniProt P33981).
T1 sequence (P33981 1-857): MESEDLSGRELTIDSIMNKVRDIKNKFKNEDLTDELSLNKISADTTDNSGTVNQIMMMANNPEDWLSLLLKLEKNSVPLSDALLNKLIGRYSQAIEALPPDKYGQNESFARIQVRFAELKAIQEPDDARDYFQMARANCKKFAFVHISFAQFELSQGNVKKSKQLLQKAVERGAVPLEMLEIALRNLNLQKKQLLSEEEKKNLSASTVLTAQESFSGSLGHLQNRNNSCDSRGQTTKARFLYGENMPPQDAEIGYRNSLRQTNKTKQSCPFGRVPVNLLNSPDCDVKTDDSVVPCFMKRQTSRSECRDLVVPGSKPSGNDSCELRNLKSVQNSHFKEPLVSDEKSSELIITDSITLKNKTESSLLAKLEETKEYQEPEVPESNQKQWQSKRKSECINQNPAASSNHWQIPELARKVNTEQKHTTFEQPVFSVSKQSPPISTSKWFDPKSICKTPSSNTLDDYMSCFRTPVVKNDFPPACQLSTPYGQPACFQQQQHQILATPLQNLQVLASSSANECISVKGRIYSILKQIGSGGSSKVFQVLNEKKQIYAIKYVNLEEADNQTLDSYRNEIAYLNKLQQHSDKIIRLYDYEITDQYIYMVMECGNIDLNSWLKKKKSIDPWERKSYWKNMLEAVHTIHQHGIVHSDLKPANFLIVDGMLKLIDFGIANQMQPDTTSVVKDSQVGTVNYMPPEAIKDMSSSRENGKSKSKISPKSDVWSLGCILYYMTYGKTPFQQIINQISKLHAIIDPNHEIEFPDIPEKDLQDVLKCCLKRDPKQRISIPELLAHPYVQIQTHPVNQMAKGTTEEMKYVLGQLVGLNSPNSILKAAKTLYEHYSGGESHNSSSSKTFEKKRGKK
As to conditions: 1 µM inhibitor, read-out: Residual activity, %. The gist of the method:
(§1)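 Human kinases were tested in a radiometric filter-binding panel with ATP at or below each enzyme's KM. Inhibitors were present at a final concentration of 1 µM, and residual activity was reported as a percentage of the uninhibited control.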

In the next data set the target is JNK2 (Homo sapiens, UniProt P45984). As to conditions: JNK2, 1 µM inhibitor; read-out: Residual activity, %. The gist of the method: as §1
JNK2, sequence (P45984 whole entry): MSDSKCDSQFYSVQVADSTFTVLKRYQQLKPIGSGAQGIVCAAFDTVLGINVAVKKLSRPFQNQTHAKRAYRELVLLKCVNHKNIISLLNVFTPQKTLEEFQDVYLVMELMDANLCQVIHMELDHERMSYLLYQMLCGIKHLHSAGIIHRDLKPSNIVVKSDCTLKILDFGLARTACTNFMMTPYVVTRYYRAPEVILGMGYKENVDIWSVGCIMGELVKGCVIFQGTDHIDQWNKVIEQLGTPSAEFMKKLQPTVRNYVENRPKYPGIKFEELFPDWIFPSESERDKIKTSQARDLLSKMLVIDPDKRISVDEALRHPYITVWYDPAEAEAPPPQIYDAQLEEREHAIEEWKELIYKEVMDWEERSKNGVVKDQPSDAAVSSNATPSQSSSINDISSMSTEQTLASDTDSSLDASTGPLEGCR
The target of the next data set is OSR1 (Homo sapiens, UniProt O95747). The following applies: OSR1, 1 µM inhibitor; read-out: Residual activity, %. The gist of the method: as §1
The target in a further data set is T2, MST2 (Homo sapiens, UniProt Q13188).
T2 sequence (Q13188 1-491): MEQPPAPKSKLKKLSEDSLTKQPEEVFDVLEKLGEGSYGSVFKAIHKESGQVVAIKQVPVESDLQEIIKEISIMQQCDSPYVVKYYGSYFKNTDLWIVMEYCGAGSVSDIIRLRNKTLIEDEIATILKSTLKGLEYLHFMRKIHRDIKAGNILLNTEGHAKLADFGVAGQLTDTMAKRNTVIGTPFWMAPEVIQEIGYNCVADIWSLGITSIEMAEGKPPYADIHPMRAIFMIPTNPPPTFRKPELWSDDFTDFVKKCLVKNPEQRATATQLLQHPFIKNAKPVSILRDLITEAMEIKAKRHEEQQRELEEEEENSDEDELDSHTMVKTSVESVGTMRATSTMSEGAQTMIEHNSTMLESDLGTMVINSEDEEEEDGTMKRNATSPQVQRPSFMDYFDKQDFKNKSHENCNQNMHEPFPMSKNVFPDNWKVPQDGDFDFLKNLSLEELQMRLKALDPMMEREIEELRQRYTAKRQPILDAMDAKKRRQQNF
As to conditions: MST2, 1 µM inhibitor; read-out: Residual activity, %. The gist of the method:
as §1

The target in another data set is SIK3 (Homo sapiens, UniProt Q9Y2K2). The following applies: SIK3, 1 µM inhibitor; read-out: Residual activity, %. A digest of the protocol: as §1
SIK3, sequence (Q9Y2K2 whole entry): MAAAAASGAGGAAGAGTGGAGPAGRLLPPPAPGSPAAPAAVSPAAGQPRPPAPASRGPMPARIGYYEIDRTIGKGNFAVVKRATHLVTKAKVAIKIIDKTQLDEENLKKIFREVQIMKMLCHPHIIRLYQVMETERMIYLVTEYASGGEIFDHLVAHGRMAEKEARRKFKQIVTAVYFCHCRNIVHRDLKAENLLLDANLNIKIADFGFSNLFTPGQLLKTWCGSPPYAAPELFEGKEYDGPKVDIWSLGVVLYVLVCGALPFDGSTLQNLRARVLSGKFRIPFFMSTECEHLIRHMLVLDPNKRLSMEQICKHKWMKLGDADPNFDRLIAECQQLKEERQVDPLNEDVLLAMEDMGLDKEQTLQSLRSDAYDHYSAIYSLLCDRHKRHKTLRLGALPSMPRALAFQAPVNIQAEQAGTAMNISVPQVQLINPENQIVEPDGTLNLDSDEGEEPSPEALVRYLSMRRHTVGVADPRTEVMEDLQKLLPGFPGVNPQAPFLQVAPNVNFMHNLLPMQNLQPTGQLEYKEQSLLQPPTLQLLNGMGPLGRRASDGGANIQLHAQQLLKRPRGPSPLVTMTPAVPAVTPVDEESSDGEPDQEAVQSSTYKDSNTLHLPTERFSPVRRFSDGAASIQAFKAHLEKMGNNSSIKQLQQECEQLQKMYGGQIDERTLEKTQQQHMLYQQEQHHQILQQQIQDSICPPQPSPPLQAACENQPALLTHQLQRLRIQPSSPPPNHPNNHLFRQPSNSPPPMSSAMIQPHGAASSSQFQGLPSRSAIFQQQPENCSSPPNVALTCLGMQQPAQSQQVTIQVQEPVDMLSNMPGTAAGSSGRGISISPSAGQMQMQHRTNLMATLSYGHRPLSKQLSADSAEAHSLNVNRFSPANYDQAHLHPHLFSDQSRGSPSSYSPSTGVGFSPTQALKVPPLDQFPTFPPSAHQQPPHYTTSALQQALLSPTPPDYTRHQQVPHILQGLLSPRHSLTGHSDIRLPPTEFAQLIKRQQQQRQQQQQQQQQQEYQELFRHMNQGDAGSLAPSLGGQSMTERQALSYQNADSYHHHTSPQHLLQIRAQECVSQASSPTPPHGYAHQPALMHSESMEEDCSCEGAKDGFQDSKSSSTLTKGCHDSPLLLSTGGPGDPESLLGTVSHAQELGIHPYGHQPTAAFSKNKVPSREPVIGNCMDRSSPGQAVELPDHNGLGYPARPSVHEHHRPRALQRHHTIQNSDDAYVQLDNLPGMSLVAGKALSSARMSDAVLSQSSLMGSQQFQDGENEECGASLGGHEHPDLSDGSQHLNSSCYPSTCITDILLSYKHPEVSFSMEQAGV
For another data set, the target named is T3, IRAK4 (Homo sapiens, UniProt Q9NWZ3).
T3 sequence (Q9NWZ3 1-460): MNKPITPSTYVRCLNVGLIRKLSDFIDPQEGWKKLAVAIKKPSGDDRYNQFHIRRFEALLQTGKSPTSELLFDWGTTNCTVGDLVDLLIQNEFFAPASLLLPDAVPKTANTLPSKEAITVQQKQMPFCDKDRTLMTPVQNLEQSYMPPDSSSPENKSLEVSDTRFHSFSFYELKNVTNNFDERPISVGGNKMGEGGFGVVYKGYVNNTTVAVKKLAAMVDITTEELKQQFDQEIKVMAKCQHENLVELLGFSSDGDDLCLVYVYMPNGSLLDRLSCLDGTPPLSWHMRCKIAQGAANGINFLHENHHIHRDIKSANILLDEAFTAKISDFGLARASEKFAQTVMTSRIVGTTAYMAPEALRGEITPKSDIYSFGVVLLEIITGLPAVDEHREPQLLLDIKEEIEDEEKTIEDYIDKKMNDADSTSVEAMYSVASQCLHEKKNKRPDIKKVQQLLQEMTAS
As to conditions: IRAK4, 1 µM inhibitor; read-out: Residual activity, %. The gist of the method: as §1

The target in another data set is FGF-R1 (Homo sapiens, UniProt P11362). The following applies: FGF-R1, 1 µM inhibitor; read-out: Residual activity, %. A digest of the protocol:
as §1

Another data set addresses PKC (Homo sapiens, UniProt P17252). The following applies: first of two PKC lines (Greek letter lost), 1 µM inhibitor, read-out: Residual activity, %. The gist of the method: as §1
A further data set deals with PAK6 (Homo sapiens, UniProt Q9NQU5). As to conditions: PAK6, 1 µM inhibitor; read-out: Residual activity, %. A digest of the protocol: as §1
PAK6, sequence (Q9NQU5 whole entry): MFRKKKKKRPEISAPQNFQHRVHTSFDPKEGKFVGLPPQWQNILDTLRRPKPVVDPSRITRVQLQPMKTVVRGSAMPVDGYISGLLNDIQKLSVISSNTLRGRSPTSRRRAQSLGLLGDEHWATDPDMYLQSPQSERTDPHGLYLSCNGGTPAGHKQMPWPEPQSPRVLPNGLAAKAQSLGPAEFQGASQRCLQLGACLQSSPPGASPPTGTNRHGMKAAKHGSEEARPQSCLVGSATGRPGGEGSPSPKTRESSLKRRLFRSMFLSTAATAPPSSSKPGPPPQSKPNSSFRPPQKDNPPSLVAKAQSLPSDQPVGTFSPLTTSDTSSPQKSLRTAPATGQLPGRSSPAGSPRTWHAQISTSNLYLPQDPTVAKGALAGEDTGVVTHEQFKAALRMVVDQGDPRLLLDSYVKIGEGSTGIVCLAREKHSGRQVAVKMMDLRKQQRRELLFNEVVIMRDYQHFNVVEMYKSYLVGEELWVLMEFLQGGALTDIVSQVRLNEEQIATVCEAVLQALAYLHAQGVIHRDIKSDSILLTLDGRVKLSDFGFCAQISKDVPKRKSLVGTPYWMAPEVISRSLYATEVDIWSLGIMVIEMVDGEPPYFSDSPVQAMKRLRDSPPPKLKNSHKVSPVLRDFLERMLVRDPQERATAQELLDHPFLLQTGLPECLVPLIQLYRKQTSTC
In another data set the target is ROCK 2 (Homo sapiens, UniProt O75116). The following applies: ROCK 2, 1 µM inhibitor; read-out: Residual activity, %. The gist of the method:
as §1

A further data set concerns the target SIK2 (Homo sapiens, UniProt Q9H0K1). As to conditions: SIK2, 1 µM inhibitor; read-out: Residual activity, %. The gist of the method:
as §1

FGF-R1, sequence (P11362 22-822): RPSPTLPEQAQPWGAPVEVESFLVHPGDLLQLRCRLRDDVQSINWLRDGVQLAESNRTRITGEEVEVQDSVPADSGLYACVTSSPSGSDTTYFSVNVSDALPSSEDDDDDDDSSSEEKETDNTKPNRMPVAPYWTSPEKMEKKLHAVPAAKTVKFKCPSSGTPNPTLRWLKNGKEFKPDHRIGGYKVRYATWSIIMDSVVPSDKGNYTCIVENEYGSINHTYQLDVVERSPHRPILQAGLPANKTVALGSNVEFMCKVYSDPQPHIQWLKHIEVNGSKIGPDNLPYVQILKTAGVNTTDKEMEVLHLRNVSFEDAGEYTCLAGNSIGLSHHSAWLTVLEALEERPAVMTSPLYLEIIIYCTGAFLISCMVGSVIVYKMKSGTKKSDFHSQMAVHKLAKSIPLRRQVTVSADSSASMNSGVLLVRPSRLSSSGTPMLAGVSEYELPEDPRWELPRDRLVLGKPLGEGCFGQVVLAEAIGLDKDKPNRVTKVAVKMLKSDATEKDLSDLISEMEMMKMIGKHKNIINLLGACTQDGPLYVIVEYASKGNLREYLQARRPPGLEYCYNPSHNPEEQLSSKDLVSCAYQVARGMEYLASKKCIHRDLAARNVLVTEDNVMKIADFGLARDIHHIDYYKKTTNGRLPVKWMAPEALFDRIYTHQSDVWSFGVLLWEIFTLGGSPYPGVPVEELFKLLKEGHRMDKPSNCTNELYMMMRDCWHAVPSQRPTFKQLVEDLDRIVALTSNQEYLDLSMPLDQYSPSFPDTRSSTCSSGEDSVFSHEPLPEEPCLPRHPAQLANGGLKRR
SIK2, sequence (Q9H0K1 whole entry): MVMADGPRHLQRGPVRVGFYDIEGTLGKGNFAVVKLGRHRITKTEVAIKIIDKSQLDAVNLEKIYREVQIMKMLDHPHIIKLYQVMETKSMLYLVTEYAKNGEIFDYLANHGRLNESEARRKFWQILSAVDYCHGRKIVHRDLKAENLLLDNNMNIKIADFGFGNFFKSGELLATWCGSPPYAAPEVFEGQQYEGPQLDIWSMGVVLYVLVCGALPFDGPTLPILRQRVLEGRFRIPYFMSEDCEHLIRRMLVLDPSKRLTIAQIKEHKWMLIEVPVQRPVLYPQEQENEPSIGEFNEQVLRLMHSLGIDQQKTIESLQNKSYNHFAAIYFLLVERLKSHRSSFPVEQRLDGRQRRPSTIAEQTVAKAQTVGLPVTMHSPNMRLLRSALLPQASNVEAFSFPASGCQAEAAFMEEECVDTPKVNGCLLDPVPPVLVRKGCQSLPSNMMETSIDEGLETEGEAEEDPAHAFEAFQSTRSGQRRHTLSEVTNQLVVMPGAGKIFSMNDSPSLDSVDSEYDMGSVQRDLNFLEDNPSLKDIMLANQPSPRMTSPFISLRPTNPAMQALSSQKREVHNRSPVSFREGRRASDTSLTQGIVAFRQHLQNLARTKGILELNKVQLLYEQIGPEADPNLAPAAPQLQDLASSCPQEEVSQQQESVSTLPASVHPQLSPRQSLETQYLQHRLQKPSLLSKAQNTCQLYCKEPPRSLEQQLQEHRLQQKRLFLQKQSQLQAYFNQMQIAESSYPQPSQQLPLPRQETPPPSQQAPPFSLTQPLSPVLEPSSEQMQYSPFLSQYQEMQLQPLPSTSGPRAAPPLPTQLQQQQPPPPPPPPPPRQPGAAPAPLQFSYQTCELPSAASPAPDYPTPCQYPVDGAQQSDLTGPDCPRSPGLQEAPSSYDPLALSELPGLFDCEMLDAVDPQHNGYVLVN

On to `N=C(N)NCCC[C@@H](NC(=O)CCCCCNC(=O)Cn1cnc2c(I)c(I)c(I)c(I)c21)C(=O)N[C@H](CCCNC(=N)N)C(=O)N[C@H](CCCNC(=N)N)C(=O)N[C@H](CCCNC(=N)N)C(=O)N[C@H](CCCNC(=N)N)C(=O)N[C@H](CCCNC(=N)N)C(=O)N[C@H](CCCCN)C(N)=O` [ARC-3125, TIBI-CH2-C(=O)-Ahx-(D-Arg)6-D-Lys-NH2], for which the remaining activity at 1 µM amounted to 45 ± 1% with TTK; 123 ± 7% with JNK2; 73 ± 2% with OSR1; 73 ± 1% with MST2; 89 ± 7% with SIK3; 73 ± 2% with IRAK4. The remaining activity at 1 µM in the data set with FGF-R1 stood at 100 ± 19%; in the data set with PKC, 81 ± 9%; with PAK6, 34 ± 11%; in the data set with ROCK 2, 5 ± 1%; with SIK2 it was 34 ± 4%.

`N=C(N)NCCC[C@@H](NC(=O)CCCCCNCc1nc2c(sc3cc(Br)cnc32)c(=O)[nH]1)C(=O)N[C@H](CCCNC(=N)N)C(=O)N[C@H](CCCNC(=N)N)C(=O)N[C@H](CCCNC(=N)N)C(=O)N[C@H](CCCNC(=N)N)C(=O)N[C@H](CCCNC(=N)N)C(=O)N[C@H](CCCCN)C(N)=O` [ARC-3126, BPTP-Ahx-(D-Arg)6-D-Lys-NH2] (X3-[dR][dR][dR][dR][dR][dR][dK]-NH2): the remaining activity at 1 µM with TTK amounted to 110 ± 4%; with JNK2, 38 ± 13%; with OSR1, 116 ± 12%; in the data set with MST2, 106 ± 6%; with SIK3, 117 ± 15%; with IRAK4 it was 97 ± 2%. For the same compound, the remaining activity at 1 µM with FGF-R1 worked out at 102 ± 3%; in the data set with PKC, 115 ± 17%; in the data set with PAK6 it was 103 ± 5%; with ROCK 2, 65 ± 17%; in the data set with SIK2 it was 109 ± 6%.

In the case of `N=C(N)NCCC[C@@H](NC(=O)CNC(=O)[C@@H](CCCNC(=N)N)NC(=O)[C@@H](CCCNC(=N)N)NC(=O)CCCCCCCNCc1nc2c(sc3cc(Br)cnc32)c(=O)[nH]1)C(=O)N[C@H](CCCCN)C(N)=O` [Compound 1, BPTP-Aoc-(D-Arg)2-Gly-D-Arg-D-Lys-NH2], the remaining activity at 1 µM in the data set with TTK turned out to be 113%; with JNK2 it was 107 ± 1%; with OSR1, 114 ± 7%; with MST2, 115 ± 11%; in the data set with SIK3 it was 106 ± 2%; in the data set with IRAK4, 110 ± 3%. Also, the remaining activity at 1 µM in the data set with FGF-R1 is 142 ± 8%; in the data set with PKC, 112 ± 2%; with PAK6, 119 ± 8%; with ROCK 2 it was 114 ± 17%; with SIK2 it was 110 ± 5%.

Take `N=C(N)NCCC[C@@H](NC(=O)CNC(=O)[C@@H](CCCNC(=N)N)NC(=O)[C@@H](CCCNC(=N)N)NC(=O)CCCCCCCNCc1nc2c(sc3ccc(Br)cc32)c(=O)[nH]1)C(=O)N[C@H](CCCCN)C(N)=O` [Compound 2, BBTP-Aoc-(D-Arg)2-Gly-D-Arg-D-Lys-NH2]: the remaining activity at 1 µM came to 94 ± 15% in the data set with TTK; 91 ± 7% in the data set with JNK2; 114 ± 4% in the data set with OSR1; 128 ± 35% with MST2; 97 ± 9% in the data set with SIK3; 108 ± 8% in the data set with IRAK4. In addition, the remaining activity at 1 µM came to 126 ± 10% with FGF-R1; 102 ± 4% in the data set with PKC; 110 ± 15% in the data set with PAK6; 61 ± 5% with ROCK 2; 107 ± 10% with SIK2.

Take `N=C(N)NCCC[C@@H](NC(=O)CNC(=O)[C@@H](CCCNC(=N)N)NC(=O)[C@@H](CCCNC(=N)N)NC(=O)Cn1cc(CNCc2nc3c(sc4ccc(Br)cc43)c(=O)[nH]2)nn1)C(=O)N[C@H](CCCCN)C(N)=O` [Compound 3, BBTP-Amt-(D-Arg)2-Gly-D-Arg-D-Lys-NH2]: the remaining activity at 1 µM was determined as 86 ± 9% in the data set with TTK; 129 ± 21% with JNK2; 107 ± 14% in the data set with OSR1; 84 ± 6% in the data set with MST2; 66 ± 6% in the data set with SIK3; 107 ± 7% in the data set with IRAK4. For the same compound, the remaining activity at 1 µM with FGF-R1 is 110 ± 2%; with PKC it was 110 ± 5%; with PAK6, 86 ± 8%; in the data set with ROCK 2 it was 62 ± 5%; with SIK2, 68 ± 3%.
